# Experimental data from paper PMC9352680, “A comprehensive thermodynamic model for RNA binding by the Saccharomyces cerevisiae Pumilio protein PUF4”.
# Target: T1, PUF4 RNA-binding domain (Saccharomyces cerevisiae, UniProt P25339 537-888)
# T1 sequence: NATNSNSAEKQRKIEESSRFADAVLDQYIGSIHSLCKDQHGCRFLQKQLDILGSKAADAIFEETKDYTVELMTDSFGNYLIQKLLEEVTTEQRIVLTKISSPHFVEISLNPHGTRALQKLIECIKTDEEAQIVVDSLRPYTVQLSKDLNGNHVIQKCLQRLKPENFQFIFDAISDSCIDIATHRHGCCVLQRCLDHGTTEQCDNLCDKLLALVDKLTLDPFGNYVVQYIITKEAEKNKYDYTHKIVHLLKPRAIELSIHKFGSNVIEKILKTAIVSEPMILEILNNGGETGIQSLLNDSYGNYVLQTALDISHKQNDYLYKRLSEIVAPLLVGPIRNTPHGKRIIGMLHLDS
# Experiment: Mg; RNA-MaP; 20 mM Na-HEPES pH 7.4, 30 mM KOAc, 0.75 mM MgCl2, 0.1% Tween-20, 5% glycerol, 0.1 mg/mL BSA, 2 mM DTT; 25 C; 0.0125-409.6 nM protein
# Details: tags: N-His6-TEV cleaved; C-SNAP kept, Cy3B-labelled; label: tethered on chip by stalled RNA polymerase
row,Binder,Kd [nM]
1,UCUCUUCGUGUAUUAUUAAAUCUCUU (ssRNA) [Id_ii_S1_P5E.2_K5.1_C5.2_[T-1G]_H5.1_A5.1_F5.1_T5.2_[T11A]],15
2,UCUCUUCGUGUAUUAUUAUCUCUCUU (ssRNA) [Id_ii_S1_P5E.2_K5.1_C5.2_[T-1G]_H5.1_A5.1_F5.1_T5.2_[A12C]],7.38
3,UCUCUUCGUGUAUUAUUAUUUCUCUU (ssRNA) [Id_ii_S1_P5E.2_K5.1_C5.2_[T-1G]_H5.1_A5.1_F5.1_T5.2_[A12T]],7.48
4,UCUCUUCCUGUAUUAUUAAGUCUCUU (ssRNA) [Id_ii_S1_P5E.2_K5.1_C5.2_[T-1C]_H5.1_A5.1_F5.1_T5.2_[T11A]_[A12G]],14.6
5,UCUCUUCCUGUAUUAUUAACUCUCUU (ssRNA) [Id_ii_S1_P5E.2_K5.1_C5.2_[T-1C]_H5.1_A5.1_F5.1_T5.2_[T11A]_[A12C]],7.24
6,UCUCUUUGUAUGGUAUCUCUU (ssRNA) [Ib_S1_P4E.1_K4.1_C4.1_H4.1_A4.1_[A6G]_[T7G]_F4.1_T4.1],14.6
7,UCUCUUCCUGUAUUAUUAAUUCUCUU (ssRNA) [Id_ii_S1_P5E.2_K5.1_C5.2_[T-1C]_H5.1_A5.1_F5.1_T5.2_[T11A]_[A12T]],6.56
8,UCUCUUCCUGUAUUAUUAAAUCUCUU (ssRNA) [Id_ii_S1_P5E.2_K5.1_C5.2_[T-1C]_H5.1_A5.1_F5.1_T5.2_[T11A]],18.8
9,UCUCUUCCUGUAUUAUUAUGUCUCUU (ssRNA) [Id_ii_S1_P5E.2_K5.1_C5.2_[T-1C]_H5.1_A5.1_F5.1_T5.2_[A12G]],6.12
10,UCUCUUCCUGUAUUAUUAUCUCUCUU (ssRNA) [Id_ii_S1_P5E.2_K5.1_C5.2_[T-1C]_H5.1_A5.1_F5.1_T5.2_[A12C]],6.56
11,UCUCUUCCUGUAUUAUUAUUUCUCUU (ssRNA) [Id_ii_S1_P5E.2_K5.1_C5.2_[T-1C]_H5.1_A5.1_F5.1_T5.2_[A12T]],7.47
12,UCUCUUCAUGUAUUAUUAGCUCUCUU (ssRNA) [Id_ii_S1_P5E.2_K5.1_C5.2_[T-1A]_H5.1_A5.1_F5.1_T5.2_[T11G]_[A12C]],3.39
13,UCUCUUCAUGUAUUAUUAGUUCUCUU (ssRNA) [Id_ii_S1_P5E.2_K5.1_C5.2_[T-1A]_H5.1_A5.1_F5.1_T5.2_[T11G]_[A12T]],3.5
14,UCUCUUCAUGUAUUAUUAAUUCUCUU (ssRNA) [Id_ii_S1_P5E.2_K5.1_C5.2_[T-1A]_H5.1_A5.1_F5.1_T5.2_[T11A]_[A12T]],7.68
15,UCUCUUCAUGUAUUAUUAUCUCUCUU (ssRNA) [Id_ii_S1_P5E.2_K5.1_C5.2_[T-1A]_H5.1_A5.1_F5.1_T5.2_[A12C]],7.59
16,UCUCUUCAUGUAUUAUUAUUUCUCUU (ssRNA) [Id_ii_S1_P5E.2_K5.1_C5.2_[T-1A]_H5.1_A5.1_F5.1_T5.2_[A12T]],9.94
17,UCUCUUUGUAUGCUAUCUCUU (ssRNA) [Ib_S1_P4E.1_K4.1_C4.1_H4.1_A4.1_[A6G]_[T7C]_F4.1_T4.1],7.91
18,UCUCUUCUUGUAUUAUUAGCUCUCUU (ssRNA) [Id_ii_S1_P5E.2_K5.1_C5.2_H5.1_A5.1_F5.1_T5.2_[T11G]_[A12C]],2.47
19,UCUCUUCUUGUAUUAUUAGUUCUCUU (ssRNA) [Id_ii_S1_P5E.2_K5.1_C5.2_H5.1_A5.1_F5.1_T5.2_[T11G]_[A12T]],3.87
20,UCUCUUCUUGUAUUAUUAACUCUCUU (ssRNA) [Id_ii_S1_P5E.2_K5.1_C5.2_H5.1_A5.1_F5.1_T5.2_[T11A]_[A12C]],5.25
21,UCUCUUCUUGUAUUAUUAAUUCUCUU (ssRNA) [Id_ii_S1_P5E.2_K5.1_C5.2_H5.1_A5.1_F5.1_T5.2_[T11A]_[A12T]],8.8

row,Binder,Kd [nM]
1,UCUCUUCUUGUAUUAUUAAAUCUCUU (ssRNA) [Id_ii_S1_P5E.2_K5.1_C5.2_H5.1_A5.1_F5.1_T5.2_[T11A]],9.5
2,UCUCUUCUUGUAUUAUUAUGUCUCUU (ssRNA) [Id_ii_S1_P5E.2_K5.1_C5.2_H5.1_A5.1_F5.1_T5.2_[A12G]],5.83
3,UCUCUUCUUGUAUUAUUAUCUCUCUU (ssRNA) [Id_ii_S1_P5E.2_K5.1_C5.2_H5.1_A5.1_F5.1_T5.2_[A12C]],5.07
4,UCUCUUCUUGUAUUAUUAUUUCUCUU (ssRNA) [Id_ii_S1_P5E.2_K5.1_C5.2_H5.1_A5.1_F5.1_T5.2_[A12T]],4.09
5,UCUCUUGCUAUAUUAUUACGUCUCUU (ssRNA) [Id_ii_S1_P5E.3_K5.2_C5.2_[C-2G]_[T-1C]_H5.2_A5.1_F5.1_T5.2_[T11C]_[A12G]],549
6,UCUCUUGCUAUAUUAUUACCUCUCUU (ssRNA) [Id_ii_S1_P5E.3_K5.2_C5.2_[C-2G]_[T-1C]_H5.2_A5.1_F5.1_T5.2_[T11C]_[A12C]],340
7,UCUCUUUGUAUGAUAUCUCUU (ssRNA) [Ib_S1_P4E.1_K4.1_C4.1_H4.1_A4.1_[A6G]_[T7A]_F4.1_T4.1],4.57
8,UCUCUUGCUAUAUUAUUACAUCUCUU (ssRNA) [Id_ii_S1_P5E.3_K5.2_C5.2_[C-2G]_[T-1C]_H5.2_A5.1_F5.1_T5.2_[T11C]],509
9,UCUCUUGCUAUAUUAUUAACUCUCUU (ssRNA) [Id_ii_S1_P5E.3_K5.2_C5.2_[C-2G]_[T-1C]_H5.2_A5.1_F5.1_T5.2_[T11A]_[A12C]],346
10,UCUCUUGCUAUAUUAUUAAUUCUCUU (ssRNA) [Id_ii_S1_P5E.3_K5.2_C5.2_[C-2G]_[T-1C]_H5.2_A5.1_F5.1_T5.2_[T11A]_[A12T]],343
11,UCUCUUGCUAUAUUAUUAUCUCUCUU (ssRNA) [Id_ii_S1_P5E.3_K5.2_C5.2_[C-2G]_[T-1C]_H5.2_A5.1_F5.1_T5.2_[A12C]],307
12,UCUCUUGCUAUAUUAUUAUUUCUCUU (ssRNA) [Id_ii_S1_P5E.3_K5.2_C5.2_[C-2G]_[T-1C]_H5.2_A5.1_F5.1_T5.2_[A12T]],391
13,UCUCUUGUUAUAUUAUUAGUUCUCUU (ssRNA) [Id_ii_S1_P5E.3_K5.2_C5.2_[C-2G]_H5.2_A5.1_F5.1_T5.2_[T11G]_[A12T]],15.3
14,UCUCUUGUUAUAUUAUUACGUCUCUU (ssRNA) [Id_ii_S1_P5E.3_K5.2_C5.2_[C-2G]_H5.2_A5.1_F5.1_T5.2_[T11C]_[A12G]],22
15,UCUCUUGUUAUAUUAUUACCUCUCUU (ssRNA) [Id_ii_S1_P5E.3_K5.2_C5.2_[C-2G]_H5.2_A5.1_F5.1_T5.2_[T11C]_[A12C]],9
16,UCUCUUGUUAUAUUAUUACUUCUCUU (ssRNA) [Id_ii_S1_P5E.3_K5.2_C5.2_[C-2G]_H5.2_A5.1_F5.1_T5.2_[T11C]_[A12T]],13.4
17,UCUCUUGUUAUAUUAUUAAAUCUCUU (ssRNA) [Id_ii_S1_P5E.3_K5.2_C5.2_[C-2G]_H5.2_A5.1_F5.1_T5.2_[T11A]],17.7
18,UCUCUUUGUAUCGUAUCUCUU (ssRNA) [Ic_S1_P4E.1_K4.1_C4.1_H4.1_A4.1_[A6C]_[T7G]_F4.1_T4.1],12.3
19,UCUCUUGUUAUAUUAUUAUCUCUCUU (ssRNA) [Id_ii_S1_P5E.3_K5.2_C5.2_[C-2G]_H5.2_A5.1_F5.1_T5.2_[A12C]],16.3
20,UCUCUUUGUAUAUUAUUAGCUCUCUU (ssRNA) [Id_ii_S1_P5E.3_K5.2_C5.2_[C-2T]_[T-1G]_H5.2_A5.1_F5.1_T5.2_[T11G]_[A12C]],0.703
21,UCUCUUUGUAUAUUAUUAACUCUCUU (ssRNA) [Id_ii_S1_P5E.3_K5.2_C5.2_[C-2T]_[T-1G]_H5.2_A5.1_F5.1_T5.2_[T11A]_[A12C]],0.55

row,Binder,Kd [nM]
1,UCUCUUUGUAUAUUAUUAAUUCUCUU (ssRNA) [Id_ii_S1_P5E.3_K5.2_C5.2_[C-2T]_[T-1G]_H5.2_A5.1_F5.1_T5.2_[T11A]_[A12T]],0.615
2,UCUCUUUGUAUAUUAUUAAAUCUCUU (ssRNA) [Id_ii_S1_P5E.3_K5.2_C5.2_[C-2T]_[T-1G]_H5.2_A5.1_F5.1_T5.2_[T11A]],0.467
3,UCUCUUUGUAUAUUAUUAUCUCUCUU (ssRNA) [Id_ii_S1_P5E.3_K5.2_C5.2_[C-2T]_[T-1G]_H5.2_A5.1_F5.1_T5.2_[A12C]],0.576
4,UCUCUUUGUAUAUUAUUAUUUCUCUU (ssRNA) [Id_ii_S1_P5E.3_K5.2_C5.2_[C-2T]_[T-1G]_H5.2_A5.1_F5.1_T5.2_[A12T]],0.826
5,UCUCUUUCUAUAUUAUUACGUCUCUU (ssRNA) [Id_ii_S1_P5E.3_K5.2_C5.2_[C-2T]_[T-1C]_H5.2_A5.1_F5.1_T5.2_[T11C]_[A12G]],494
6,UCUCUUUCUAUAUUAUUACCUCUCUU (ssRNA) [Id_ii_S1_P5E.3_K5.2_C5.2_[C-2T]_[T-1C]_H5.2_A5.1_F5.1_T5.2_[T11C]_[A12C]],388
7,UCUCUUUCUAUAUUAUUACUUCUCUU (ssRNA) [Id_ii_S1_P5E.3_K5.2_C5.2_[C-2T]_[T-1C]_H5.2_A5.1_F5.1_T5.2_[T11C]_[A12T]],390
8,UCUCUUUGUAUCCUAUCUCUU (ssRNA) [Ic_S1_P4E.1_K4.1_C4.1_H4.1_A4.1_[A6C]_[T7C]_F4.1_T4.1],4.4
9,UCUCUUUCUAUAUUAUUACAUCUCUU (ssRNA) [Id_ii_S1_P5E.3_K5.2_C5.2_[C-2T]_[T-1C]_H5.2_A5.1_F5.1_T5.2_[T11C]],630
10,UCUCUUUCUAUAUUAUUAAGUCUCUU (ssRNA) [Id_ii_S1_P5E.3_K5.2_C5.2_[C-2T]_[T-1C]_H5.2_A5.1_F5.1_T5.2_[T11A]_[A12G]],582
11,UCUCUUUCUAUAUUAUUAACUCUCUU (ssRNA) [Id_ii_S1_P5E.3_K5.2_C5.2_[C-2T]_[T-1C]_H5.2_A5.1_F5.1_T5.2_[T11A]_[A12C]],581
12,UCUCUUUCUAUAUUAUUAAUUCUCUU (ssRNA) [Id_ii_S1_P5E.3_K5.2_C5.2_[C-2T]_[T-1C]_H5.2_A5.1_F5.1_T5.2_[T11A]_[A12T]],615
13,UCUCUUUCUAUAUUAUUAAAUCUCUU (ssRNA) [Id_ii_S1_P5E.3_K5.2_C5.2_[C-2T]_[T-1C]_H5.2_A5.1_F5.1_T5.2_[T11A]],557
14,UCUCUUUCUAUAUUAUUAUCUCUCUU (ssRNA) [Id_ii_S1_P5E.3_K5.2_C5.2_[C-2T]_[T-1C]_H5.2_A5.1_F5.1_T5.2_[A12C]],455
15,UCUCUUUCUAUAUUAUUAUUUCUCUU (ssRNA) [Id_ii_S1_P5E.3_K5.2_C5.2_[C-2T]_[T-1C]_H5.2_A5.1_F5.1_T5.2_[A12T]],402
16,UCUCUUUAUAUAUUAUUAGCUCUCUU (ssRNA) [Id_ii_S1_P5E.3_K5.2_C5.2_[C-2T]_[T-1A]_H5.2_A5.1_F5.1_T5.2_[T11G]_[A12C]],13.7
17,UCUCUUUAUAUAUUAUUAGUUCUCUU (ssRNA) [Id_ii_S1_P5E.3_K5.2_C5.2_[C-2T]_[T-1A]_H5.2_A5.1_F5.1_T5.2_[T11G]_[A12T]],22.2
18,UCUCUUUAUAUAUUAUUACGUCUCUU (ssRNA) [Id_ii_S1_P5E.3_K5.2_C5.2_[C-2T]_[T-1A]_H5.2_A5.1_F5.1_T5.2_[T11C]_[A12G]],18.1
19,UCUCUUUGUAUUAUGAUCUCUU (ssRNA) [Ia_S1_P5E.1_K5.1_C5.1_H5.1_A5.1_F5.1_[T9G]_T5.1],15.3
20,UCUCUUUGUAUCAUAUCUCUU (ssRNA) [Ic_S1_P4E.1_K4.1_C4.1_H4.1_A4.1_[A6C]_[T7A]_F4.1_T4.1],1.04
